Test results: patent US20130071410A1 (published 2013)

Molecular target: T1, human CGRP receptor (CRLR + RAMP1) (human, UniProt Q16602 23-461; O60894 27-148)
T1 construct: also called hCGRP R; huCGRP R
Assay: FACS staining of transfected cells

T1 sequence (Q16602 23-461 limits assumed, chain 1 of 2): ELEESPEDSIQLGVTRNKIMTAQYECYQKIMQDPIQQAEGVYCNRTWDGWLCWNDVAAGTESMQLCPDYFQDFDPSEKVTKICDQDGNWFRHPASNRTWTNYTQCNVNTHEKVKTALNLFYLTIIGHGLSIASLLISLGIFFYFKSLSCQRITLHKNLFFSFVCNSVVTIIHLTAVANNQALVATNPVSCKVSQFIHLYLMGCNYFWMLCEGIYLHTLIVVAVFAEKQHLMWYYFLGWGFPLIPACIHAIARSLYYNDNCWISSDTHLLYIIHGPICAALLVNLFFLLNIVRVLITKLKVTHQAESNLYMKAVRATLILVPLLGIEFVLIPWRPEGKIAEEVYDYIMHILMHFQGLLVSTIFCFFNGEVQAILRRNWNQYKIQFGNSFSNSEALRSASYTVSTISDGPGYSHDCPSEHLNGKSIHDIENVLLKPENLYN
T1 sequence (O60894 27-148 limits assumed, chain 2 of 2): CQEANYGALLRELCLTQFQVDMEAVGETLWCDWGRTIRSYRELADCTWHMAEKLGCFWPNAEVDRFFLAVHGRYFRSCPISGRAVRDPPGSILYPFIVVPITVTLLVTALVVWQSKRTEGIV

binding result: binds
Binder: Ac-WVTHRLAGLLSRSGGVVRCNFVPTDVGPFAF-NH2 (also: Alexa 647 label, site not given here, also called Alexa647-CGRP8-37) [Alexa 647-labeled CGRP8-37 peptide analog]
